Experimental data: publication PMC10536547, “Investigation of the Effect on the Albumin Binding Moiety for the Pharmacokinetic Properties of ^68Ga-, ^205/206Bi-, and ^177Lu-Labeled NAPamide-Based Radiopharmaceuticals” (Pharmaceuticals, 2023)

Key:
[1] = Ex vivo organ distribution in B16F10 tumor-bearing mice; set-up: species or system C57BL/6 mice; settings: mouse, iv
Protocol: (§1) To accomplish post-imaging organ distribution investigations, 9.36 ± 0.67, 6.34 ± 1.07 and 2.39 ± 0.19 MBq of ^68Ga-labeled-^177Lu-labeled-and ^205/206Bi-labeled […]-based probes were iv. Injected, respectively, into the lateral tail vein of both the tumor-naive and the melanoma tumor-carrying experimental mice. Ninety-minutes ([^68Ga]Ga-DOTA-[…]-DOTA-[…]; [^205/206Bi]Bi-DOTA-[…]; [^205/206Bi]Bi-DOTA-[…]) and 24 h ([^177Lu]Lu-DOTA-[…]; [^177Lu]Lu-DOTA-[…]) post tracer administration, mice were sacrificed under Forane-induced inhalation anesthesia. Then, the tumor, the blood, and selected organs and tissues were removed, weighed wet and measured for radioactivity applying a calibrated gamma counter (Perkin-Elmer Packard 406 Cobra, Waltham, MA, USA). The counts per minute (CPM) figures for each sample were converted to percent of administered dose per gram of tissue (%ID/g).

in vivo = test: in vivo; set-up: species or system C57BL/6 mice; settings: C57BL/6, mouse, iv, total radioactivity
Protocol: At 9 ± 1 days post tumor implantation, at an average tumor bulk of approximately 120 mm^3, the tumor-naive and the B16F10 tumor-bearing mice were intravenously (iv.) injected with 9.36 ± 0.67 MBq of [^68Ga]Ga-DOTA-NAPamide or [^68Ga]Ga-DOTA-IPB-NAPamide via the lateral tail vein. After a 90-min-long tracer distribution time, the study mice were subjected to whole-body static PET acquisition (10 min scans at each bed position) under isoflurane-induced anesthesia (AbbVie, Budapest, Hungary; OGYI-T-1414/01) applying a preclinical MiniPET-II small animal PET device (Division of Nuclear Medicine and Translational Imaging, Department of Medical Imaging, Faculty of Medicine, University of Debrecen).
Three-dimensional ordered-subsets expectation-maximization algorithm (3D OSEM) was used for PET image reconstruction. Three-dimensional ellipsoidal volume of interests (VOI) were manually placed around the border of the organ/tissue activity to calculate their radiotracer concentration. The radiopharmaceutical accumulation was presented as standardized uptake values (SUVs). The following formula was applied for the determination of the SUV parameter:SUV (g/mL) = [VOI activity (Bq/mL)]/[administered activity (Bq)/animal weight (g)]

[2] = assay type: physicochemical
Protocol: After the dilution of the purified radiotracers ([^68Ga]Ga-DOTA-[…]-DOTA-[…], [^205/206Bi]Bi-DOTA-[…], [^205/206Bi]Bi-DOTA-[…], [^177Lu]Lu-DOTA-[…], [^177Lu]Lu-DOTA-[…]) (50 μL, 1-3 MBq) with 450 μL water, 500 μL n-octanol was added to each sample. […] The activity of the samples from n-octanol phase (20 μL) and aqueous phase (20 μL) was analyzed with gamma counter. The procedure was performed in triplicate. For [^68Ga]Ga-DOTA-[…]-DOTA-[…], [^205/206Bi]Bi-DOTA-[…], [^205/206Bi]Bi-DOTA-[…], [^177Lu]Lu-DOTA-[…], and for [^177Lu]Lu-DOTA-[…] the logP values were -3.46, -2.12, -3.65, -2.32, -2.6, 1.26, respectively.

[3] = tested on: B16F10 tumor-bearing mice; test: Ex vivo organ distribution in B16F10 tumor-bearing mice; set-up: species or system C57BL/6 mice; settings: mouse, iv
Protocol: as §1

CCCC[C@H](NC(C)=O)C(=O)N[C@@H](CC(=O)O)C(=O)N[C@@H](Cc1c[nH]cn1)C(=O)N[C@H](Cc1ccccc1)C(=O)N[C@@H](CCCNC(=N)N)C(=O)N[C@@H](Cc1c[nH]c2ccccc12)C(=O)NCC(=O)N[C@@H](CCCCNC(=O)[C@H](CCCCNC(=O)CCCc1ccc(I)cc1)NC(=O)CN1CCN(CC(=O)O)CCN(CC(=O)O)CCN(CC(=O)O)CC1)C(N)=O [[^68Ga]Ga-DOTA-IPB-NAPamide, metal not drawn]
tissue uptake at 1.5 h ([1]; B16-F10 tumor uptake): 5.06 ± 1.08 %ID/g
tissue uptake at 1.5 h ([1]; blood uptake): 14.2 ± 1.87 %ID/g
tissue uptake at 1.5 h ([1]; brain uptake): 0.28 ± 0.02 %ID/g
tissue uptake at 1.5 h ([1]; fat uptake): 2.02 ± 0.65 %ID/g
tissue uptake at 1.5 h ([1]; heart uptake): 5.14 ± 0.72 %ID/g
tissue uptake at 1.5 h ([1]; kidney uptake): 4.57 ± 0.88 %ID/g
tissue uptake at 1.5 h ([1]; large intestine uptake): 0.92 ± 1.25 %ID/g
tissue uptake at 1.5 h ([1]; liver uptake): 2.64 ± 0.11 %ID/g
tissue uptake at 1.5 h ([1]; lung uptake): 6.32 ± 0.91 %ID/g
tissue uptake at 1.5 h ([1]; muscle uptake): 1.01 ± 0.18 %ID/g
tissue uptake at 1.5 h ([1]; small intestine uptake): 2.41 ± 0.03 %ID/g
tissue uptake at 1.5 h ([1]; spleen uptake): 2.37 ± 0.25 %ID/g
tissue uptake at 1.5 h ([1]; stomach uptake): 2.97 ± 1.38 %ID/g
SUV at 1.5 h (in vivo): 1.31 ± 0.24 SUV

CCCC[C@H](NC(C)=O)C(=O)N[C@@H](CC(=O)O)C(=O)N[C@@H](Cc1c[nH]cn1)C(=O)N[C@H](Cc1ccccc1)C(=O)N[C@@H](CCCNC(=N)N)C(=O)N[C@@H](Cc1c[nH]c2ccccc12)C(=O)NCC(=O)N[C@@H](CCCCNC(=O)[C@H](CCCCNC(=O)CCCc1ccc(I)cc1)NC(=O)CN1CCN(CC(=O)O)CCN(CC(=O)O)CCN(CC(=O)O)CC1)C(N)=O [[^68Ga]Ga-DOTA-IPB-NAPamide] [metal not drawn]
logP [2]: −2.12

CCCC[C@H](NC(C)=O)C(=O)N[C@@H](CC(=O)O)C(=O)N[C@@H](Cc1c[nH]cn1)C(=O)N[C@H](Cc1ccccc1)C(=O)N[C@@H](CCCNC(=N)N)C(=O)N[C@@H](Cc1c[nH]c2ccccc12)C(=O)NCC(=O)N[C@@H](CCCCNC(=O)CN1CCN(CC(=O)O)CCN(CC(=O)O)CCN(CC(=O)O)CC1)C(N)=O [[^68Ga]Ga-DOTA-NAPamide, metal not drawn, reference compound]
tissue uptake at 1.5 h ([1]; blood uptake): 0.35 ± 0.1 %ID/g
tissue uptake at 1.5 h ([1]; brain uptake): 0.03 ± 0.01 %ID/g
tissue uptake at 1.5 h ([1]; heart uptake): 0.1 ± 0.06 %ID/g
tissue uptake at 1.5 h ([1]; large intestine uptake): 0.3 ± 0.01 %ID/g
tissue uptake at 1.5 h ([1]; lung uptake): 0.33 ± 0.06 %ID/g
tissue uptake at 1.5 h ([1]; muscle uptake): 0.08 ± 0.02 %ID/g
tissue uptake at 1.5 h ([1]; small intestine uptake): 0.35 ± 0.13 %ID/g
tissue uptake at 1.5 h ([1]; stomach uptake): 0.24 ± 0.09 %ID/g
SUV at 1.5 h (in vivo): 0.43 ± 0.09 SUV

CCCC[C@H](NC(C)=O)C(=O)N[C@@H](CC(=O)O)C(=O)N[C@@H](Cc1c[nH]cn1)C(=O)N[C@H](Cc1ccccc1)C(=O)N[C@@H](CCCNC(=N)N)C(=O)N[C@@H](Cc1c[nH]c2ccccc12)C(=O)NCC(=O)N[C@@H](CCCCNC(=O)CN1CCN(CC(=O)O)CCN(CC(=O)O)CCN(CC(=O)O)CC1)C(N)=O [[^68Ga]Ga-DOTA-NAPamide] [metal not drawn, reference compound]
B16-F10 tumor uptake ([3]; 1.5 h): 1.18 ± 0.27 %ID/g
fat uptake ([3]; 1.5 h): 0.16 ± 0.03 %ID/g
kidney uptake ([3]; 1.5 h): 3.07 ± 0.35 %ID/g
liver uptake ([3]; 1.5 h): 0.31 ± 0.08 %ID/g
spleen uptake ([3]; 1.5 h): 0.15 ± 0.02 %ID/g
logP [2]: −3.46

CCCC[C@H](NC(C)=O)C(=O)N[C@@H](CC(=O)O)C(=O)N[C@@H](Cc1c[nH]cn1)C(=O)N[C@H](Cc1ccccc1)C(=O)N[C@@H](CCCNC(=N)N)C(=O)N[C@@H](Cc1c[nH]c2ccccc12)C(=O)NCC(=O)N[C@@H](CCCCNC(=O)[C@H](CCCCNC(=O)CCCc1ccc(I)cc1)NC(=O)CN1CCN(CC(=O)O)CCN(CC(=O)O)CCN(CC(=O)O)CC1)C(N)=O [[^177Lu]Lu-DOTA-IPB-NAPamide, metal not drawn]
tissue uptake at 24 h ([1]; B16-F10 tumor uptake): 4.16 ± 1.86 %ID/g
tissue uptake at 24 h ([1]; blood uptake): 3.71 ± 0.73 %ID/g
tissue uptake at 24 h ([1]; brain uptake): 0.08 ± 0.01 %ID/g
tissue uptake at 24 h ([1]; fat uptake): 0.67 ± 0.34 %ID/g
tissue uptake at 24 h ([1]; heart uptake): 1.3 ± 0.12 %ID/g
tissue uptake at 24 h ([1]; kidney uptake): 5.58 ± 1.59 %ID/g
tissue uptake at 24 h ([1]; large intestine uptake): 0.61 ± 0.11 %ID/g
tissue uptake at 24 h ([1]; liver uptake): 1.97 ± 0.13 %ID/g
tissue uptake at 24 h ([1]; lung uptake): 2.5 ± 0.24 %ID/g
tissue uptake at 24 h ([1]; muscle uptake): 0.33 ± 0.07 %ID/g
tissue uptake at 24 h ([1]; small intestine uptake): 0.6 ± 0.03 %ID/g
tissue uptake at 24 h ([1]; spleen uptake): 1.32 ± 0.2 %ID/g
tissue uptake at 24 h ([1]; stomach uptake): 0.69 ± 0.11 %ID/g

CCCC[C@H](NC(C)=O)C(=O)N[C@@H](CC(=O)O)C(=O)N[C@@H](Cc1c[nH]cn1)C(=O)N[C@H](Cc1ccccc1)C(=O)N[C@@H](CCCNC(=N)N)C(=O)N[C@@H](Cc1c[nH]c2ccccc12)C(=O)NCC(=O)N[C@@H](CCCCNC(=O)CN1CCN(CC(=O)O)CCN(CC(=O)O)CCN(CC(=O)O)CC1)C(N)=O [[^177Lu]Lu-DOTA-NAPamide, metal not drawn, reference compound]
tissue uptake at 24 h ([1]; B16-F10 tumor uptake): 0.16 ± 0.15 %ID/g
tissue uptake at 24 h ([1]; fat uptake): 0.01 ± 0.01 %ID/g
tissue uptake at 24 h ([1]; heart uptake): 0.01 %ID/g
tissue uptake at 24 h ([1]; kidney uptake): 1.85 ± 0.79 %ID/g
tissue uptake at 24 h ([1]; liver uptake): 0.24 ± 0.13 %ID/g
tissue uptake at 24 h ([1]; lung uptake): 0.04 ± 0.03 %ID/g
tissue uptake at 24 h ([1]; small intestine uptake): 0.01 ± 0.01 %ID/g
tissue uptake at 24 h ([1]; spleen uptake): 0.07 ± 0.04 %ID/g

CCCC[C@H](NC(C)=O)C(=O)N[C@@H](CC(=O)O)C(=O)N[C@@H](Cc1c[nH]cn1)C(=O)N[C@H](Cc1ccccc1)C(=O)N[C@@H](CCCNC(=N)N)C(=O)N[C@@H](Cc1c[nH]c2ccccc12)C(=O)NCC(=O)N[C@@H](CCCCNC(=O)CN1CCN(CC(=O)O)CCN(CC(=O)O)CCN(CC(=O)O)CC1)C(N)=O [[^177Lu]Lu-DOTA-NAPamide] [metal not drawn, reference compound]
brain uptake ([3]; 24 h): 0.00 ± 0.00 %ID/g
muscle uptake ([3]; 24 h): 0.00 ± 0.00 %ID/g
logP [2]: −2.6
